Results reported in article PMC8650744.

Target: HIV-1 Matrix (MA) WT (HIV-1, UniProt C1JB69 1-131)
Assay: ITC

B1: tRNALys3 A7U/U66A (structured_RNA)
RNA: GCCCGGUUAGCUCAGUCGGUAGAGCAUCAGACUUUUAAUCUGAGGGUCCAGGGUUCAAGUCCCUGAUCGGGCGCCA
With B1 the binding signal was 2 fold Kd increase vs WT tRNA.
